Series [1] deals with Co-86-608 (Arabidopsis thaliana). Put plainly: EMSA. Conditions: apparent; RNA taken as U1 snRNA; EMSA: 20 mM Tris-HCl pH 7.5, 1 mM DTT, 3 mM MgCl2, 50 mM NaCl, on ice 15 min; 0.1 ug RNA, 2% Tris-acetate agarose gel.
The subject of series [2] is IDD (Arabidopsis thaliana). The series is described as follows: EMSA. Conditions: apparent; EMSA: 20 mM Tris-HCl pH 7.5, 1 mM DTT, 3 mM MgCl2, 50 mM NaCl, on ice 15 min; 0.1 ug RNA, 2% Tris-acetate agarose gel.
The subject of series [3] is IDD-118-212 (Arabidopsis thaliana). Put plainly: EMSA. Conditions: apparent; EMSA: 20 mM Tris-HCl pH 7.5, 1 mM DTT, 3 mM MgCl2, 50 mM NaCl, on ice 15 min; 0.1 ug RNA, 2% Tris-acetate agarose gel. In general terms: A gel shift assay detects complexes by their altered migration in electrophoresis.
Series [4] concerns IDD-212-350 (Arabidopsis thaliana). Put plainly: EMSA. Particulars: apparent; EMSA: 20 mM Tris-HCl pH 7.5, 1 mM DTT, 3 mM MgCl2, 50 mM NaCl, on ice 15 min; 0.1 ug RNA, 2% Tris-acetate agarose gel.
For series [5], the system named is IDD-212-350-NLS2 (Arabidopsis thaliana). The series is described as follows: EMSA. Conditions: apparent; EMSA: 20 mM Tris-HCl pH 7.5, 1 mM DTT, 3 mM MgCl2, 50 mM NaCl, on ice 15 min; 0.1 ug RNA, 2% Tris-acetate agarose gel.
Series [6] deals with NOD (Arabidopsis thaliana). Put plainly: EMSA. Particulars: apparent; EMSA: 20 mM Tris-HCl pH 7.5, 1 mM DTT, 3 mM MgCl2, 50 mM NaCl, on ice 15 min; 0.1 ug RNA, 2% Tris-acetate agarose gel.
Series [7] concerns NOD-RK1 (Arabidopsis thaliana). The series is described as follows: EMSA. Particulars: apparent; EMSA: 20 mM Tris-HCl pH 7.5, 1 mM DTT, 3 mM MgCl2, 50 mM NaCl, on ice 15 min; 0.1 ug RNA, 2% Tris-acetate agarose gel.
Series [8] concerns the molecule itself. The series is described as follows: dynamic light scattering; protein at 0.05 mg/ml in 1 mM phosphate buffer pH 7.5, Zetasizer Nano ZS; free protein, and with U1 snRNA at a protein:RNA molar ratio of 5:1.

In general, stoichiometry N refers to a count of units in the complex or per binding partner.

Regarding U1 snRNA, the Kd in series [1] was 40 nM; in series [2] it was 40 nM; in series [3] it was 1420 nM; in series [4] it was 60 nM; in series [5], 480 nM; in series [6], 760 nM. Also, the Kd in series [7] stood at 2250 nM.

B1: Arabidopsis thaliana coilin (Atcoilin), wild type (natural protein, UniProt Q8RWK8 1-608, looked up)
chain: MEEEKVRVRLVFEDRRILSKYQKKQGLTRSWVVLNRKCHRTISEFSDHIFHTFSLCEACPHGLSLSMEGFVLPPFESSCVLKDKDIVCVKKKKESLLEIVGEDSDENVYNAIEVEERPQIRPGEMLLANEEFQKETGGYESESEEDELEEEAEEFVPEKKASKKRKTSSKNQSTKRKKCKLDTTEESPDERENTAVVSNVVKKKKKKKSLDVQSANNDEQNNDSTKPMTKSKRSSQQEESKEHNDLCQLSAETKKTPSRSARRKKAKRQWLREKTKLEKEELLQTQLVVAPSQKPVITIDHQATKEKHCETLENQQAEEVSDGFGDEVVPVEVRPGHIRFKPLAGTDEASLDSEPLVENVLWNGNMTKKKGQKWGTEKSGFSKRYAQDFNEDATTQPAEAETLANCPIDYEQLVAYTGSVKKGDVIAYRLIELTSSWTPEVSSFRVGKISYYDPDSKMVTLMPVQEFPIEKKTEEDDDFCMQPDTSLYKEDGSLEIEFSALLDVRSVKTSSSDSAEVAKSALPEPDQSAKKPKLSANKELQTPAKENGEVSPWEELSEALSAKKAALSQANNGWNKKGSSSGGSWSYKALRGSAMGPVMNYLRSQKEI
notes: coilin of Arabidopsis thaliana, a 608-amino acid protein (NM_101173.4; GI:42562030); Cloned into the PQE30 vector; forms oligomers larger than a decamer in solution by DLS; also called wt coilin; wt Atcoilin; source: E. coli JM109, purified under denaturing conditions (Ni-NTA agarose), renatured by dialysis
With B1, the “stoichiometry N” value in series [8] was above 10.

B2: Atcoilin N-terminal ordered domain (NOD), residues 1-117 (domain or fragment, Arabidopsis thaliana, UniProt Q8RWK8 1-117, looked up)
chain: MEEEKVRVRLVFEDRRILSKYQKKQGLTRSWVVLNRKCHRTISEFSDHIFHTFSLCEACPHGLSLSMEGFVLPPFESSCVLKDKDIVCVKKKKESLLEIVGEDSDENVYNAIEVEER
notes: coilin of Arabidopsis thaliana (NM_101173.4; GI:42562030), NOD, 1-117 aa residues; also called N-terminal domain; source: E. coli JM109, purified under denaturing conditions (Ni-NTA agarose), renatured by dialysis
For the molecule B2, the binding result in series [8] is reported as “binds”.

(Values after publication PMC3539977, “Plant Coilin: Structural Characteristics and RNA-Binding Properties” (PLoS ONE, 2013).)
